We go through 32 molecules from patent US20170355769A1 (AbbVie / Abbott, published 2017).

The target in the experiment is T1, Human full length B7-H3 (human, UniProt Q5ZPR3 29-534).
T1 sequence: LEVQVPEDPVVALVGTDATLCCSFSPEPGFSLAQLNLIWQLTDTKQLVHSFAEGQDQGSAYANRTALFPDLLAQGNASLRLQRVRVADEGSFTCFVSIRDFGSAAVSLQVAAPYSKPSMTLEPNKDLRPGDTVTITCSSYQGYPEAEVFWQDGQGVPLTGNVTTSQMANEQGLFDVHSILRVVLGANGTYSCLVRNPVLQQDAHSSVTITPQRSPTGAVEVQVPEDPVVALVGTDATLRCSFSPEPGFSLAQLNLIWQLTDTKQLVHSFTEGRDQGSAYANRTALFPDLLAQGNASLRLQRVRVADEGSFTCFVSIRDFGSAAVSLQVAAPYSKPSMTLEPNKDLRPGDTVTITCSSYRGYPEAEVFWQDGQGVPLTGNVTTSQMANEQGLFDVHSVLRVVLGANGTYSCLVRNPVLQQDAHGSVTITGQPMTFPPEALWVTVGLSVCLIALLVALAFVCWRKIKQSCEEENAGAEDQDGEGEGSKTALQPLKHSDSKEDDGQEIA
Put plainly: cell-based or functional assay.

Substitutions are numbered along the chain they refer to.

B1: huAb3v2.5-TX (antibody, human IgG1, kappa, L234A L235A, V domains shown)
VH: EVQLVQSGAEVKKPGSSVKVSCKASGYTFSSYWMHWVRQAPGQGLEWIGLIHPESGSTNYNEMFKNRATLTVDRSTSTAYMELSSLRSEDTAVYYCAGGGRLYFDYWGQGTTVTVSS
VL: DIVMTQSPLSLPVTPGEPASISCRSSQSLVHSNRDTYLRWYLQKPGQSPQLLIYKVSNRFSGVPDRFSGSGSGTDFTLKISRVEAEDVGVYYCSQSTHVPYTFGGGTKVEIKR
modifications: synthon TX on reduced interchain Cys
Regarding B1, the “EC50 nM H1650 (tumor cell cytotoxicity)” value was 0.62 nM.

B2: huAb3v2.6-TV (antibody, human IgG1, kappa, L234A L235A, V domains shown)
VH: B1 VH
VL: B1 VL with R34Q
modifications: synthon TV on reduced interchain Cys
On to B2, for which the “EC50 nM H1650 (tumor cell cytotoxicity)” value is 0.52 nM.

B3: huAb3v2.5-TV (antibody, human IgG1, kappa, L234A L235A, V domains shown)
VH: B1 VH
VL: B1 VL
modifications: synthon TV on reduced interchain Cys
Take B3: the “EC50 nM H1650 (tumor cell cytotoxicity)” value was determined as 0.53 nM.

B4: huAb3v2.6-LB (antibody, human IgG1, kappa, L234A L235A, V domains shown)
VH: B1 VH
VL: B1 VL with R34Q
modifications: synthon LB on reduced interchain Cys
Consider B4, for which the “EC50 nM H1650 (tumor cell cytotoxicity)” value was 2.07 nM.

B5: huAb3v2.6-AAD (antibody, human IgG1, kappa, L234A L235A, V domains shown)
VH: B1 VH
VL: B1 VL with R34Q
modifications: synthon AAD on reduced interchain Cys
Turning to B5, the “EC50 nM H1650 (tumor cell cytotoxicity)” value amounted to 0.85 nM.

B6: huAb3v2.5-SE (antibody, human IgG1, kappa, L234A L235A, V domains shown)
VH: B1 VH
VL: B1 VL
modifications: synthon SE on reduced interchain Cys
Consider B6, for which the “EC50 nM H1650 (tumor cell cytotoxicity)” value turned out to be 0.85 nM.

B7: huAb3v2.5-LB (antibody, human IgG1, kappa, L234A L235A, V domains shown)
VH: B1 VH
VL: B1 VL
modifications: synthon LB on reduced interchain Cys
Take B7: the “EC50 nM H1650 (tumor cell cytotoxicity)” value was determined as 2.59 nM.

B8: huAb3v2.5-SR (antibody, human IgG1, kappa, L234A L235A, V domains shown)
VH: B1 VH
VL: B1 VL
modifications: synthon SR on reduced interchain Cys
With B8, the “EC50 nM H1650 (tumor cell cytotoxicity)” value was determined as 0.59 nM.

B9: huAb3v2.5-AAA (antibody, human IgG1, kappa, L234A L235A, V domains shown)
VH: B1 VH
VL: B1 VL
modifications: synthon AAA on reduced interchain Cys
Consider B9, for which the “EC50 nM H1650 (tumor cell cytotoxicity)” value amounted to 0.85 nM.

B10: huAb3v2.5-WD (antibody, human IgG1, kappa, L234A L235A, V domains shown)
VH: B1 VH
VL: B1 VL
modifications: synthon WD on reduced interchain Cys
B10: the “EC50 nM H1650 (tumor cell cytotoxicity)” value stood at 0.83 nM.

B11: huAb3v2.6-ZT (antibody, human IgG1, kappa, L234A L235A, V domains shown)
VH: B1 VH
VL: B1 VL with R34Q
modifications: synthon ZT on reduced interchain Cys
B11: the “EC50 nM H1650 (tumor cell cytotoxicity)” value stood at 1.11 nM.

B12: huAb3v2.5-YG (antibody, human IgG1, kappa, L234A L235A, V domains shown)
VH: B1 VH
VL: B1 VL
modifications: synthon YG on reduced interchain Cys
As to B12, the “EC50 nM H1650 (tumor cell cytotoxicity)” value came to 0.71 nM.

B13: huAb3v2.5-KZ (antibody, human IgG1, kappa, L234A L235A, V domains shown)
VH: B1 VH
VL: B1 VL
modifications: synthon KZ on reduced interchain Cys
For B13, the “EC50 nM H1650 (tumor cell cytotoxicity)” value is 0.87 nM.

B14: huAb3v2.6-XW (antibody, human IgG1, kappa, L234A L235A, V domains shown)
VH: B1 VH
VL: B1 VL with R34Q
modifications: synthon XW on reduced interchain Cys
Regarding B14, the “EC50 nM H1650 (tumor cell cytotoxicity)” value stood at 2.4 nM.

B15: huAb3v2.6-AAA (antibody, human IgG1, kappa, L234A L235A, V domains shown)
VH: B1 VH
VL: B1 VL with R34Q
modifications: synthon AAA on reduced interchain Cys
With B15, the “EC50 nM H1650 (tumor cell cytotoxicity)” value came out at 1.24 nM.

B16: huAb3v2.5-AAD (antibody, human IgG1, kappa, L234A L235A, V domains shown)
VH: B1 VH
VL: B1 VL
modifications: synthon AAD on reduced interchain Cys
Turning to B16, the “EC50 nM H1650 (tumor cell cytotoxicity)” value worked out at 0.49 nM.

B17: huAb3v2.6-TX (antibody, human IgG1, kappa, L234A L235A, V domains shown)
VH: B1 VH
VL: B1 VL with R34Q
modifications: synthon TX on reduced interchain Cys
Consider B17, for which the “EC50 nM H1650 (tumor cell cytotoxicity)” value came to 0.47 nM.

B18: huAb3v2.6-ZZ (antibody, human IgG1, kappa, L234A L235A, V domains shown)
VH: B1 VH
VL: B1 VL with R34Q
modifications: synthon ZZ on reduced interchain Cys
As for B18, the “EC50 nM H1650 (tumor cell cytotoxicity)” value was 1.35 nM.

B19: huAb3v2.6-WD (antibody, human IgG1, kappa, L234A L235A, V domains shown)
VH: B1 VH
VL: B1 VL with R34Q
modifications: synthon WD on reduced interchain Cys
Consider B19, for which the “EC50 nM H1650 (tumor cell cytotoxicity)” value stood at 0.79 nM.

B20: huAb3v2.5-YY (antibody, human IgG1, kappa, L234A L235A, V domains shown)
VH: B1 VH
VL: B1 VL
modifications: synthon YY on reduced interchain Cys
Turning to B20, the “EC50 nM H1650 (tumor cell cytotoxicity)” value amounted to 0.71 nM.

B21: huAb3v2.5-XW (antibody, human IgG1, kappa, L234A L235A, V domains shown)
VH: B1 VH
VL: B1 VL
modifications: synthon XW on reduced interchain Cys
For the molecule B21, the “EC50 nM H1650 (tumor cell cytotoxicity)” value is 2.18 nM.

B22: huAb3v2.5-ZZ (antibody, human IgG1, kappa, L234A L235A, V domains shown)
VH: B1 VH
VL: B1 VL
modifications: synthon ZZ on reduced interchain Cys
Consider B22, for which the “EC50 nM H1650 (tumor cell cytotoxicity)” value was 1.1 nM.

B23: huAb3v2.5-ZT (antibody, human IgG1, kappa, L234A L235A, V domains shown)
VH: B1 VH
VL: B1 VL
modifications: synthon ZT on reduced interchain Cys
B23: the “EC50 nM H1650 (tumor cell cytotoxicity)” value came out at 0.95 nM.

B24: huAb3v2.6-YY (antibody, human IgG1, kappa, L234A L235A, V domains shown)
VH: B1 VH
VL: B1 VL with R34Q
modifications: synthon YY on reduced interchain Cys
Consider B24, for which the “EC50 nM H1650 (tumor cell cytotoxicity)” value was determined as 0.72 nM.

B25: huAb13v1-XW (antibody, human IgG1, kappa, L234A L235A, V domains shown)
VH: EVQLQESGPGLVKPSETLSLTCAVTGYSITSGYSWHWIRQFPGNGLEWMGYIHSSGSTNYNPSLKSRISISRDTSKNQFFLKLSSVTAADTAVYYCAGYDDYFEYWGQGTTVTVSS
VL: DIQMTQSPSSLSASVGDRVTITCKASQNVGFNVAWYQQKPGKSPKALIYSASYRYSGVPSRFSGSGSGTDFTLTISSLQPEDFAEYFCQQYNWYPFTFGQGTKLEIKR
modifications: synthon XW on reduced interchain Cys
For B25, the “EC50 nM H1650 (tumor cell cytotoxicity)” value came to 0.86 nM.

B26: huAb13v1-TV (antibody, human IgG1, kappa, L234A L235A, V domains shown)
VH: B25 VH
VL: B25 VL
modifications: synthon TV on reduced interchain Cys
Consider B26, for which the “EC50 nM H1650 (tumor cell cytotoxicity)” value turned out to be 0.43 nM.

B27: huAb13v1-YG (antibody, human IgG1, kappa, L234A L235A, V domains shown)
VH: B25 VH
VL: B25 VL
modifications: synthon YG on reduced interchain Cys
Take B27: the “EC50 nM H1650 (tumor cell cytotoxicity)” value was determined as 0.33 nM.

B28: huAb13v1-AAA (antibody, human IgG1, kappa, L234A L235A, V domains shown)
VH: B25 VH
VL: B25 VL
modifications: synthon AAA on reduced interchain Cys
Turning to B28, the “EC50 nM H1650 (tumor cell cytotoxicity)” value came to 0.37 nM.

B29: huAb13v1-TX (antibody, human IgG1, kappa, L234A L235A, V domains shown)
VH: B25 VH
VL: B25 VL
modifications: synthon TX on reduced interchain Cys
On to B29, for which the “EC50 nM H1650 (tumor cell cytotoxicity)” value amounted to 0.22 nM.

B30: huAb13v1-KZ (antibody, human IgG1, kappa, L234A L235A, V domains shown)
VH: B25 VH
VL: B25 VL
modifications: synthon KZ on reduced interchain Cys
As for B30, the “EC50 nM H1650 (tumor cell cytotoxicity)” value is 179 nM.

B31: huAb13v1-SE (antibody, human IgG1, kappa, L234A L235A, V domains shown)
VH: B25 VH
VL: B25 VL
modifications: synthon SE on reduced interchain Cys
As for B31, the “EC50 nM H1650 (tumor cell cytotoxicity)” value was determined as 0.63 nM.

B32: huAb13v1-SR (antibody, human IgG1, kappa, L234A L235A, V domains shown)
VH: B25 VH
VL: B25 VL
modifications: synthon SR on reduced interchain Cys
As for B32, the “EC50 nM H1650 (tumor cell cytotoxicity)” value was 0.59 nM.
